Target: PfUDN, N-terminal fragment of Plasmodium falciparum UvrD helicase (P. falciparum 3D7)

stimulation of the unwinding (helicase) activity of PfUDN (10 nM) on the 3′ to 5′ direction-specific substrate 3B by PfMLH (8 and 16 nM) pre-incubated with the substrate, against PfUDN alone: 22 to 36%
Substance: PfMLH (P. falciparum MutL homologue) (natural protein)

Source: article PMC3503981
